T1: mouse LRP6 ECD, Fc-tagged (mouse, UniProt O88572 20-1370)
T1 construct: extracellular domain; Bought; not shown: Fc tag of the purchased fusion
T1 sequence (looked up): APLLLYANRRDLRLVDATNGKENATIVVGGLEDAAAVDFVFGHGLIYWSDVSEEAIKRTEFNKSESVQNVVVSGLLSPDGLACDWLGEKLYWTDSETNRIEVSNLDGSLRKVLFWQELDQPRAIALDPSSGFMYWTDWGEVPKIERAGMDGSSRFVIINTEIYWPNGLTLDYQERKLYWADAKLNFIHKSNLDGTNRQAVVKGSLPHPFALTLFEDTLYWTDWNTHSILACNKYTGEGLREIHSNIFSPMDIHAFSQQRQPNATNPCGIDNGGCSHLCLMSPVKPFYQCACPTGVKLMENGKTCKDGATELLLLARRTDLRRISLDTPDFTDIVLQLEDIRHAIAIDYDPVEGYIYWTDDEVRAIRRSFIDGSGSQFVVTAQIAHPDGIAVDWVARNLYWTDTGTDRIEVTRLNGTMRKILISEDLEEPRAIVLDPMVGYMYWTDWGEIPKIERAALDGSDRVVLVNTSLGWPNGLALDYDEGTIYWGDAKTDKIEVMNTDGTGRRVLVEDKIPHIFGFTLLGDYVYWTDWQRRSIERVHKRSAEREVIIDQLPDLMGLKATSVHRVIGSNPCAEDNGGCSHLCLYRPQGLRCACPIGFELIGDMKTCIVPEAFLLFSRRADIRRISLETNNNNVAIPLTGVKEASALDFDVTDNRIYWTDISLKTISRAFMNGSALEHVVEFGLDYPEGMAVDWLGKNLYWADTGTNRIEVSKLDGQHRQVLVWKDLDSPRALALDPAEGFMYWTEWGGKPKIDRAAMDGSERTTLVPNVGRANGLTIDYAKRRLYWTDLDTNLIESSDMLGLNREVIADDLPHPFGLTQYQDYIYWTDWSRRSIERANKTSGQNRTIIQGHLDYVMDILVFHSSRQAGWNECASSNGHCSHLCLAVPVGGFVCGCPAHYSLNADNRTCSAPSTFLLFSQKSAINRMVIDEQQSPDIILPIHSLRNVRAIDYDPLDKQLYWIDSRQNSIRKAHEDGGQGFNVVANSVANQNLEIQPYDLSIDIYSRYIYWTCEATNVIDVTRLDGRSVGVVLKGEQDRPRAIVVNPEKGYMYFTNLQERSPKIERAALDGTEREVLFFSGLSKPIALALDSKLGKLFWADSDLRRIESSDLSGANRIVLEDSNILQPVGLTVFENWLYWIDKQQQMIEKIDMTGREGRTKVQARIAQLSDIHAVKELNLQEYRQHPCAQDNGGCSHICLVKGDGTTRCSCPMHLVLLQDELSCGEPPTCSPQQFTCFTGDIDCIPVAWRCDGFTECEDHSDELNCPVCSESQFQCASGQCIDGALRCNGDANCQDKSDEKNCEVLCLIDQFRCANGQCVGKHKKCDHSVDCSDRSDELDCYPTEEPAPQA

T2: mouse LRP5 ECD, Fc-tagged (mouse, UniProt Q91VN0 31-1383)
T2 construct: extracellular domain; Bought; not shown: Fc tag of the purchased fusion
T2 sequence (looked up): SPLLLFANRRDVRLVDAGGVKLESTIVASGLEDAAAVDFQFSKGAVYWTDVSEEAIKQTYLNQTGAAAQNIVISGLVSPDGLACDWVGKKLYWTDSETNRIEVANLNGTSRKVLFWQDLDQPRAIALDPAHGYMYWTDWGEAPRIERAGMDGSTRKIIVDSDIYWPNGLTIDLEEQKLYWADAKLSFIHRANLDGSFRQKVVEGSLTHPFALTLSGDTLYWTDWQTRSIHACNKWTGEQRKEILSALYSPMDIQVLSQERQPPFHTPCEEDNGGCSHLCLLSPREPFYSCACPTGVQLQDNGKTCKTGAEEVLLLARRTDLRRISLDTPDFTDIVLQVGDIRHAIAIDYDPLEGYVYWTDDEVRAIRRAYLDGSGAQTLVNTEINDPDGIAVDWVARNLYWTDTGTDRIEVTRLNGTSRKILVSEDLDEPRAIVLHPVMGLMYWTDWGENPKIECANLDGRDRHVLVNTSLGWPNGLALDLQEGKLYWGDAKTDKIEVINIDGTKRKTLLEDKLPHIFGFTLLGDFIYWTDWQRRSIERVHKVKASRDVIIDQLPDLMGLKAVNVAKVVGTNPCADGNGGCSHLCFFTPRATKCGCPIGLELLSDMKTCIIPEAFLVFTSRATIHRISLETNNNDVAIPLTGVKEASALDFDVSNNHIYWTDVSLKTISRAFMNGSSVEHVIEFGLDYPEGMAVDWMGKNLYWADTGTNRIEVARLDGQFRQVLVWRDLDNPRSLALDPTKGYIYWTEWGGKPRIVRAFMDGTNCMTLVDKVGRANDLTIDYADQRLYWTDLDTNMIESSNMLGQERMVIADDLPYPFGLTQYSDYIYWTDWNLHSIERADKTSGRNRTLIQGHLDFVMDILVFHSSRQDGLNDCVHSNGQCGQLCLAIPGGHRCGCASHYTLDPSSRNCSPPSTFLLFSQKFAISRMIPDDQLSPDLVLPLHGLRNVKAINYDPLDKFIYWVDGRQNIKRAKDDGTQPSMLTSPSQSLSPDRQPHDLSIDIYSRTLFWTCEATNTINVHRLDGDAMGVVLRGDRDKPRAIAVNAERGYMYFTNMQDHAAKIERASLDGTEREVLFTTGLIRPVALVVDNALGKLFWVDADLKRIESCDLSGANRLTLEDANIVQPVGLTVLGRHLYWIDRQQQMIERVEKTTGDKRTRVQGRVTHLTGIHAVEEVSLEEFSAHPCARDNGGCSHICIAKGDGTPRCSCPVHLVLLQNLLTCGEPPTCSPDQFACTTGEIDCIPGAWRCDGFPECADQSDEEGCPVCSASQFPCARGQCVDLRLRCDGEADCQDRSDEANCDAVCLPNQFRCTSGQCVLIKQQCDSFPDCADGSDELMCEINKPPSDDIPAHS

T3: FZD5 CRD, Fc-tagged (human, UniProt Q13467 27-167)
T3 construct: domain: CRD; Bought; also called FZD5 ECD; not shown: Fc tag of the purchased fusion
T3 sequence (looked up): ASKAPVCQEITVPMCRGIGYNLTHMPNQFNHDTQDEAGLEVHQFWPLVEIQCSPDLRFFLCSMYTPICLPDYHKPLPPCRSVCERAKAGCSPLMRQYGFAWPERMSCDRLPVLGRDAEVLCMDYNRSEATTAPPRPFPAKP

T4: FZD8 CRD, Fc-tagged (human, UniProt Q9H461 28-158)
T4 construct: domain: CRD; Bought; not shown: Fc tag of the purchased fusion
T4 sequence (looked up): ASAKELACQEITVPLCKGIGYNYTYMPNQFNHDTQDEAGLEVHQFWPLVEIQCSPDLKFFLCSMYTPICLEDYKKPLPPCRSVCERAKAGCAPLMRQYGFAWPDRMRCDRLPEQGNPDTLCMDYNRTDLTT


Key:
[1] = molecular target: T5, 85BSA (Bos taurus, UniProt P02769); experiment: ELISA of the IgG on hLRP6, mLRP6, mLRP5, Fc and BSA
T5 construct: also called bovine serum albumin
T5 sequence (P02769 25-607 limits assumed): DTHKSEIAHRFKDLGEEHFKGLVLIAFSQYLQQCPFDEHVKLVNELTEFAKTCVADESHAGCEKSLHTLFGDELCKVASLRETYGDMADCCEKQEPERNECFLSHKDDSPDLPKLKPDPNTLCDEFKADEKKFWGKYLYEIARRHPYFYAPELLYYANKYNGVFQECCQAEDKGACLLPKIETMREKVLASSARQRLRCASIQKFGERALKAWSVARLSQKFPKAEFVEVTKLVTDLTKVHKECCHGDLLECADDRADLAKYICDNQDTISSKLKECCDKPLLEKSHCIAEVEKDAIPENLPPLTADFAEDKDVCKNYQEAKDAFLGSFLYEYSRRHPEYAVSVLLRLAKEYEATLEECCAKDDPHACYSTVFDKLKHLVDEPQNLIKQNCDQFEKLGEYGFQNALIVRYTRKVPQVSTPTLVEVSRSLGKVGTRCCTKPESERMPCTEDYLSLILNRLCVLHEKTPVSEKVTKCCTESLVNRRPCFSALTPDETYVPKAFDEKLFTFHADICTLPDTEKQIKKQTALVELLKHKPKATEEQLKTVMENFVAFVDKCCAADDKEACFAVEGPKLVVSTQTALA

[2] = molecular target: T1, mouse LRP6 ECD, Fc-tagged; experiment: as above
[3] = molecular target: T2, mouse LRP5 ECD, Fc-tagged; experiment: as above
[4] = molecular target: FZD7 CRD, Fc-tagged (human, UniProt O75084 33-185); experiment: kinetic table of the Fab; KD marked '**…'; the printed KD is not kd/ka of the same column; method not named for this figure
[5] = molecular target: T6, FZD1 CRD, Fc-tagged (human, UniProt Q9UP38 70-250); experiment: as above
T6 construct: domain: CRD; Bought; not shown: Fc tag of the purchased fusion
T6 sequence (Q9UP38 70-250): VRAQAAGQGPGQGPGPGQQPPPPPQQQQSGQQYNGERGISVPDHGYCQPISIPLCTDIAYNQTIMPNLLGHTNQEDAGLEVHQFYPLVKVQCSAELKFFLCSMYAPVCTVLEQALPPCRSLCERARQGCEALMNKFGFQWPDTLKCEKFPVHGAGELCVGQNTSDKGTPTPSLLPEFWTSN

[6] = molecular target: T7, FZD2 CRD, Fc-tagged (human, UniProt Q14332 24-190); experiment: as above
T7 construct: domain: CRD; Bought; not shown: Fc tag of the purchased fusion

[7] = molecular target: T3, FZD5 CRD, Fc-tagged; experiment: as above
[8] = molecular target: T4, FZD8 CRD, Fc-tagged; experiment: as above

Row | binding result [1] | binding result [2] | binding result [3] | Kd [4] [nM] | Kd [5] [nM] | Kd [6] [nM] | Kd [7] [nM] | Kd [8] [nM] | Binder
1 | no binding | binds | no binding | – | – | – | – | – | LRP6 antibody 2542 (antibody, V domains shown) VH: EVQLVESGGGLVQPGGSLRLSCAASGFNISSYYIHWVRQAPGKGLEWVASIYSSYGYTSYADSVKGRFTISADTSKNTAYLQMNSLRAEDTAVYYCARTVRGSKKPYFSGWAMDYWGQGTLVTVSS VL: DIQMTQSPSSLSASVGDRVTITCRASQSVSSAVAWYQQKPGKAPKLLIYSASSLYSGVPSRFSGSRSGTDFTLTISSLQPEDFATYYCQQYYWPITFGQGTKVEIK
2 | – | – | – | 0.142 | 0.177 | 0.126 | 0.11 | 0.109 | F^P - Fab (Fab, V domains shown) VH: EVQLVESGGGLVQPGGSLRLSCAASGFNIGSSSIHWVRQAPGKGLEWVASIYSAFASTSYADSVKGRFTISADTSKNTAYLQMNSLRAEDTAVYYCARYHFPFGFALDYWGQGTLVTVSS VL: DIQMTQSPSSLSASVGDRVTITCRASQSVSSAVAWYQQKPGKAPKLLIYSASSLYSGVPSRFSGSRSGTDFTLTISSLQPEDFATYYCQQGVYLFTFGQGTKVEIK
3 | no binding | binds | no binding | – | – | – | – | – | LRP6 antibody 2539 (antibody, V domains shown, also called L6^3) VH: EVQLVESGGGLVQPGGSLRLSCAASGFNISYSSIHWVRQAPGKGLEWVAYISSYYGYTYYADSVKGRFTISADTSKNTAYLQMNSLRAEDTAVYYCARAHYFPWAGAMDYWGQGTLVTVSS VL: DIQMTQSPSSLSASVGDRVTITCRASQSVSSAVAWYQQKPGKAPKLLIYSASSLYSGVPSRFSGSRSGTDFTLTISSLQPEDFATYYCQQYSWGPFTFGQGTKVEIK

— patent US20210032352A1 (ANTERA THERAPEUTICS, published 2021)
